The results in this text go back to US20210277145A1 (INSERM INSTITUT NATIONAL DE LA SANTE ET DE LA RECHERCHE …, published 2021).

The target in one test is T1, human albumin (human, UniProt P02768 25-609).
T1 construct: Coated on microtiter wells at 10 microgram/ml
Briefly: ELISA, albumin coated at 10 microgram/ml, anti-His tag detection. The text has this:
(§1) Example 1: Binding of KB-AT-002/003_ABP to human and murine albumin in an immunosorbent assay. Binding to albumin may be favorable to increase the size of sdAbs, which are smaller sized than conventional immunoglobulins (15 kDa versus 150 kDa, for a monovalent sdAb and IgG, respectively). A construct was established encoding a bi-paratopic sdAb (KB-AT-002/003) fused to an albumin binding peptide (ABP, with the amino acid sequence […]) resulting in the sdAb designated KB-AT-002/003_ABP (SEQ ID NO: 18). Purified KB-AT-002/003_ABP was tested for binding to both human and murine albumin. Human and murine albumin were immobilized (10 microgram/ml) in 10 mM NaHCO₃, 50 mM Na2CO3 (pH 9.5) in a volume of 50 microliter in microtiter plates (Greiner Bio-One, Les Ulis, France) for 16 h at 4° C. As a negative control, no albumin was immobilized. […]
(§2) Wells were then washed three times with 200 microliter/well using TBS-T. Bound of KB-AT-002/003_ABP was probed with peroxidase-labeled monoclonal anti-His tag antibodies (Abcam, diluted 1/10000) for 2 hours at 37° C. with 50 microliter/well. Wells were then washed three times with 100 microliter/well using TBS-T. Residual peroxidase activity was detected by measuring peroxidase-mediated […] of 3,3′,5,5′-tetramethylbenzidine. […]
Background: ELISA stands for enzyme-linked immunosorbent assay.

Test [1] addresses T2, murine albumin (murine, UniProt P07724 25-608). The description is as above.
Excerpt: as §1, §2

For test [2], the target named is T3, biotinylated human albumin (human, UniProt P02768 25-609, biotinylated (sites not given)).
T3 construct: Captured on streptavidin biosensors; also called human bt-albumin; bt-albumin
Briefly: biolayer interferometry (Octet-QK), bt-albumin on streptavidin sensors, sdAb at 125 or 250 microgram/ml. As to the method:
(§3) Example 2: Binding of KB-AT-002/003_ABP to biotinylated human albumin in a biolayer-interferometry analysis assay. We tested the binding of KB-AT-002/003_ABP to biotinylated human albumin using Octet-QK equipment (FIG. 2). To this end, biotinylated albumin (bt-albumin) was diluted in phosphate-buffered saline with 0.1% Tween-20 (PBS-T) to a concentration of 200 microgram/ml for absorption to streptavidin-high binding capacity sensors (Fortébio, Menlo Park, Calif., USA). Sensors were rehydrated in 0.2 ml PBS-T for 15 min. Sensors were then incubated with 0.1 ml bt-albumin solution for 600 sec. Sensors were subsequently allowed to reach stable baseline levels via incubation with PBS-T for 300 sec. bt-Albumin coated sensors were then transferred to wells containing KB-AT-002/003_ABP (125 or 250 microgram/ml in PBS-T) and incubated for 300 sec in order to visualize association of KB-AT-002/003_ABP to immobilized bt-albumin. Following this association phase, sensors were transferred to wells containing PBS-T, and incubated for 900 sec, allowing dissociation of the KB-AT-002/003_ABP/bt-albumin complex.
(§4) Example 3: Binding of KB-VWF-013bv_ABP to biotinylated human or murine albumin in a biolayer-interferometry analysis assay. We tested the binding of KB-VWF-013bv_ABP (SEQ ID NO: 6) to biotinylated human or murine albumin using Octet-QK equipment (FIG. 3). To this end, biotinylated albumin (bt-albumin) was diluted in phosphate-buffered saline with 0.1% Tween-20 (PBS-T) to a concentration of 200 microgram/ml for absorption to streptavidin-high binding capacity sensors (Fortébio, Menlo Park, Calif., USA). Sensors were rehydrated in 0.2 ml PBS-T for 15 min. Sensors were then incubated with 0.1 ml bt-albumin solution for 600 sec. Sensors were subsequently allowed to reach stable baseline levels via incubation with PBS-T for 300 sec. bt-Albumin coated sensors were then transferred to wells containing KB-VWF-013bv_ABP (125 or 250 microgram/ml in PBS-T) and incubated for 900 sec in order to visualize association of KB-VWF-013bv_ABP to immobilized bt-albumin.
For orientation: In BLI a coated tip is dipped into the sample, and binding shifts an interference pattern.

In test [3] the target is T4, biotinylated murine albumin (murine, UniProt P07724 25-608, biotinylated (sites not given)).
T4 construct: Captured on streptavidin biosensors; also called murine bt-albumin; bt-albumin
The description is as above. As to the method: as §3, §4

The target of the next test is T5, human antithrombin (human, UniProt P01008 33-464).
T5 construct: also called AT
Briefly: biolayer interferometry (Octet-QK), human antithrombin coupled to amine-reactive sensors, sdAb in solution (100 microgram/ml by paragraph 127). The method, then:
Example 4: Binding of murine albumin to a complex of antithrombin and KB-AT-002/003_ABP. We tested the binding of albumin to KB-AT-002/003_ABP while the sdAb was bound to antithrombin via biolayer-interferometry analysis using Octet-QK equipment (FIG. 4). To this end, human antithrombin was diluted in 0.1 M Mes (pH 5.0) to a concentration of 50 microgram/ml for coupling to EDC/NHS-activated amine-reactive biosensors (Fortébio, Menlo Park, Calif., USA). Sensors were rehydrated in 0.2 ml 0.1 M MES, pH 5.0 for 300 sec. Sensors were then activated via incubation with 0.1 ml 0.2 M EDC/0.095 M NHS mixture for 300 sec and subsequently incubated with 0.1 ml antithrombin-solution for 600 sec. Unoccupied amine-reactive sites were quenched by incubating with 1M ethanolamine for 180 sec, and sensors were allowed to reach stable baseline levels via incubation with phosphate-buffered saline supplemented with 0.1% Tween-20 (PBS-T) for 300 sec. Antithrombin-coated sensors were then transferred to wells containing KB-AT-002/003_ABP (100 microgram/ml in PBS-T) and incubated for 600 sec in order to visualize association of KB-AT-002/003_ABP to immobilized antithrombin. […] As is showing in the lower panel of FIG. 4, KB-AT-002/003_ABP bound readily to immobilized antithrombin.

Test [4] addresses T2, murine albumin. Briefly: immunosorbent assay: murine albumin coated at 10 microgram/ml, bound sdAb probed with peroxidase-labeled anti-His tag antibody, corrected for non-coated wells.
Excerpt: as §1, §2

T5 sequence (P01008 33-464 limits assumed): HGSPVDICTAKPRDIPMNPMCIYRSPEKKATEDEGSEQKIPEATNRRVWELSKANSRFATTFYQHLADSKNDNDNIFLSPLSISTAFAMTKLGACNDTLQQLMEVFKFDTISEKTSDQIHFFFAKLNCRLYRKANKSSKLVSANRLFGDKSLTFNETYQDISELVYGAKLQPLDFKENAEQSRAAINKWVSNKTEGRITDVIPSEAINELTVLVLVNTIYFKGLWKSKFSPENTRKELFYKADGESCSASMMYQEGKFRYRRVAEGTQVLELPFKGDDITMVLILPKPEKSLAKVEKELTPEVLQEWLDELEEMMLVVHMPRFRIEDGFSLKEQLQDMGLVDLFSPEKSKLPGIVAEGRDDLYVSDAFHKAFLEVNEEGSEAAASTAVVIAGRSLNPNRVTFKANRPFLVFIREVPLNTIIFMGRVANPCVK

B1: KB-AT-002/003 (VHH)
chain: QVQLQESGGGLVQAGGSLRLSCAASGRTFNNNGMGWFRQAPGKEREFVAAISWSGGSTYYADSVKGRYIMSRDNAKNTVYLQMNSLKPEDTAVYYCAARTRYNSGLFSRNYDYWGQGTQVTVSSGGGSGGGSGGGSGGGSQVQLQESGGGLVQPGGSLRLSCAASALTFSSRAWAWYRQAPGKQRELVASITGGGTTNYADSVKGRFTISRDNAKNTVYLQMNSLKPEDTAVHYCNGYRYTYAWGQGTQVTVSS
notes: A tag is not described, but a His tag is likely, since the ELISA detects with anti-His antibodies
As to B1, the binding result in the test with human albumin and in the test with murine albumin [1] was “no binding (tested: 0-10 microgram/ml)” each time.

B2: KB-VWF-013bv_ABP (VHH)
chain: QVQLQSGGGLVQAGDSLRLSCAASGRTFIRYAMAWFRQAPGKEREFVAAIPQSGGRSYYADSVKGRFTISRDNAKNTVYLQMNSLKPEDTAVYSCAATSTYYGRSAYSSHSGGYDYWGQGTQVTVSSGGGSGGGSGGGSGGGSQVQLVQSGGGLVQAGDSLRLSCAASGRTFIRYAMAWFRQAPGKEREFVAAIPQSGGRSYYADSVKGRFTISRDNAKNTVYLQMNSLKPEDTAVYSCAATSTYYGRSAYSSHSGGYDYWGQGTQVTVSSGRGGGSLTPRGVRLGGGSQGLIGDIALPRWGALWGDSV
notes: A tag is not described; also called KB-VWF-013_ABP
In the case of B2, the dissociation constant Kd (usually the concentration at which binding is half-saturated) was determined as 99 nM in test [2] and 83 nM in test [3].

B3: KB-AT-002/003_ABP (VHH)
chain: QVQLQESGGGLVQAGGSLRLSCAASGRTFNNNGMGWFRQAPGKEREFVAAISWSGGSTYYADSVKGRYIMSRDNAKNTVYLQMNSLKPEDTAVYYCAARTRYNSGLFSRNYDYWGQGTQVTVSSGGGSGGGSGGGSGGGSQVQLQESGGGLVQPGGSLRLSCAASALTFSSRAWAWYRQAPGKQRELVASITGGGTTNYADSVKGRFTISRDNAKNTVYLQMNSLKPEDTAVHYCNGYRYTYAWGQGTQVTVSSGRGGGSGGGSGGGSGGGSQGLIGDIALPRWGALWGDSV
notes: It was detected with anti-His tag antibodies, so the protein tested carried a His tag; also called KB-AT-002/003_AlbBP
In test [2], B3 yielded a Kd of 420 nM. Besides, the binding result with human antithrombin and with murine albumin [4] was “binds” throughout.
